Assay results: US20190225692A1 (JUNO THERAPEUTICS, published 2019)
Residue numbers refer to the chain shown, from its start.

B1: TCR 15 (codon optimized, cysteine modified version) (TCR, V domains shown)
V domain 1: AQKITQTQPGMFVQEKEAVTLDCTYDTSDQSYGLFWYKQPSSGEMIFLIYQGSYDEQNATEGRYSLNFQKARKSANLVISASQLGDSAMYFCAMKPGGYNKLIFGAGTRLAVHP
V domain 2: DAGVIQSPRHEVTEMGQEVTLRCKPISGHNSLFWYRQTMMRGLELLIYFNNNVPIDDSGMPEDRFSAKMPNASFSTLKIQPSEPRDSAVYFCASSLVGRSRTEQYFGPGTRLTVTE
B2: TCR 26 (codon optimized, cysteine modified version) (TCR, V domains shown)
V domain 1: B1 V domain 1 with K95R, P96D, G97A, G98R, Y99N, K101D, L102M, I103R, A111T, H113K
V domain 2: NAGVTQTPKFRVLKTGQSMTLLCAQDMNHEYMYWYRQDPGMGLRLIHYSVGEGTTAKGEVPDGYNVSRLKKQNFLLGLESAAPSQTSVYFCASSYYASGRNYEQYFGPGTRLTVTE
B3: TCR 20 (codon optimized, cysteine modified version) (TCR, V domains shown)
V domain 1: AQKVTQAQTEISVVEKEDVTLDCVYETRDTTYYLFWYKQPPSGELVFLIRRNSFDEQNEISGRYSWNFQKSTSSFNFTITASQVVDSAVYFCALWTGANNLFFGTGTRLTVIP
V domain 2: GAVVSQHPSRVICKSGTSVKIECRSLDFQATTMFWYRQFPKQSLMLMATSNEGSKATYEQGVEKDKFLINHASLTLSTLTVTSAHPEDSSFYICSASSLARRSYEQYFGPGTRLTVTE
B4: TCR 16 (codon optimized, cysteine modified version) (TCR, V domains shown)
V domain 1: KQEVTQIPAALSVPEGENLVLNCSFTDSAIYNLQWFRQDPGKGLTSLLLIQSSQREQTSGRLNASLDKSSGRSTLYIAASQPGDSATYLCAVRPANNNDMRFGAGTRLTVKP
V domain 2: DVKVTQSSRYLVKRTGEKVFLECVQDMDHENMFWYRQDPGLGLRLIYFSYDVKMKEKGDIPEGYSVSREKKERFSLILESASTNQTSMYLCASSLWGRSNQPQHFGDGTRLSILE
B5: TCR 25 (codon optimized, cysteine modified version) (TCR, V domains shown)
V domain 1: AQKITQTQPGMFVQEKEAVTLDCTYDTSDQSYGLFWYKQPSSGEMIFLIYQGSYDEQNATEGRYSLNFQKARKSANLVISASQLGDSAMYFCAMREGSLTGGGNKLTFGTGTQLKVEL
V domain 2: B4 V domain 2 with R98Q
B6: TCR 19 (codon optimized, cysteine modified version) (TCR, V domains shown)
V domain 1: AQKITQTQPGMFVQEKEAVTLDCTYDTSDQSYGLFWYKQPSSGEMIFLIYQGSYDEQNATEGRYSLNFQKARKSANLVISASQLGDSAMYFCAMRENTGTASKLTFGTGTRLQVTL
V domain 2: B4 V domain 2 with L95S, R98Q, N100T, Q101G, P102E, H104Y, D107P, S112T, I113V, L114T
B7: TCR 50 (codon optimized, cysteine modified version) (TCR, V domains shown)
V domain 1: GEDVEQSLFLSVREGDSSVINCTYTDSSSTYLYWYKQEPGAGLQLLTYIFSNMDMKQDQRLTVLLNKKDKHLSLRIADTQTGDSAIYFCAESPPGTYKYIFGTGTRLKVLA
V domain 2: DSGVTQTPKHLITATGQRVTLRCSPRSGDLSVYWYQQSLDQGLQFLIHYYNGEERAKGNILERFSAQQFPDLHSELNLSSLELGDSALYFCASSATRDAYGYTFGSGTRLTVVE
B8: TCR 45 (codon optimized, cysteine modified version) (TCR, V domains shown)
V domain 1: GQQVMQIPQYQHVQEGEDFTTYCNSSTTLSNIQWYKQRPGGHPVFLIQLVKSGEVKKQKRLTFQFGEAKKNSSLHITATQTTDVGTYFCAGSSGAGSYQLTFGKGTKLSVIP
V domain 2: GAGVSQSPSNKVTEKGKDVELRCDPISGHTALYWYRQRLGQGLEFLIYFQGNSAPDKSGLPSDRFSAERTGESVSTLTIQRTQQEDSAVYLCASSLYLGTTGELFFGEGSRLTVLE
B9: TCR 55 (codon optimized, cysteine modified version) (TCR)
TCR alpha: GEDVEQSLFLSVREGDSSVINCTYTDSSSTYLYWYKQEPGAGLQLLTYIFSNMDMKQDQRLTVLLNKKDKHLSLRIADTQTGDSAIYFCAVPSGATNKLIFGTGTLLAVQPNIQNPDPAVYQLRDSKSSDKSVCLFTDFDSQTNVSQSKDSDVYITDKCVLDMRSMDFKSNSAVAWSNKSDFACANAFNNSIIPEDTFFPSPESSCDVKLVEKSFETDTNLNFQNLSVIGFRILLLKVAGFNLLMTLRLWSS
TCR beta: EPEVTQTPSHQVTQMGQEVILRCVPISNHLYFYWYRQILGQKVEFLVSFYNNEISEKSEIFDDQFSVERPDGSNFTLKIRSTKLEDSAMYFCASTTRSSYEQYFGPGTRLTVTEDLKNVFPPEVAVFEPSEAEISHTQKATLVCLATGFYPDHVELSWWVNGKEVHSGVCTDPQPLKEQPALNDSRYCLSSRLRVSATFWQNPRNHFRCQVQFYGLSENDEWTQDRAKPVTQIVSAEAWGRADCGFTSESYQQGVLSATILYEILLGKATLYAVLVSALVLMAMVKRKDSRG
B10: TCR 46 (codon optimized, cysteine modified version) (TCR, V domains shown)
V domain 1: AQSVTQLDSQVPVFEEAPVELRCNYSSSVSVYLFWYVQYPNQGLQLLLKYLSGSTLVKGINGFEAEFNKSQTSFHLRKPSVHISDTAEYFCAVSPSSGTYKYIFGTGTRLKVLA
V domain 2: GAGVSQTPSNKVTEKGKYVELRCDPISGHTALYWYRQSLGQGPEFLIYFQGTGAADDSGLPNDRFFAVRPEGSVSTLKIQRTERGDSAVYLCASSLYLGGSETQYFGPGTRLLVLE
B11: TCR 53 (codon optimized, cysteine modified version) (TCR, V domains shown)
V domain 1: AQSVAQPEDQVNVAEGNPLTVKCTYSVSGNPYLFWYVQYPNRGLQFLLKYITGDNLVKGSYGFEAEFNKSQTSFHLKKPSALVSDSALYFCAVRDFGSGTYKYIFG
V domain 2: GAGVSQSPRYKVTKRGQDVALRCDPISGHVSLYWYRQALGQGPEFLTYFNYEAQQDKSGLPNDRFSAERPEGSISTLTIQRTEQRDSAMYRCASSGSGTSGYNEQFFGPGTRLTVLE
B12: TCR 44 (codon optimized, cysteine modified version) (TCR, V domains shown)
V domain 1: GQNIDQPTEMTATEGAIVQINCTYQTSGFNGLFWYQQHAGEAPTFLSYNVLDGLEEKGRFSSFLSRSKGYSYLLLKELQMKDSASYLCAQYSGGYQKVTFGTGTKLQVIP
V domain 2: DSGVTQTPKHLITATGQRVTLRCSPRSGDLSVYWYQQSLDQGLQFLIQYYNGEERAKGNILERFSAQQFPDLHSELNLSSLELGDSALYFCASSGTPDTQYFGPGTRLTVLE
B13: TCR 47 (codon optimized, cysteine modified version) (TCR, V domains shown)
V domain 1: QKEVEQNSGPLSVPEGAIASLNCTYSDRGSQSFFWYRQYSGKSPELIMFIYSNGDKEDGRFTAQLNKASQYVSLLIRDSQPSDSATYLCAVNLLSGSARQLTFGSGTQLTVLP
V domain 2: EPEVTQTPSHQVTQMGQEVILRCVPISNHLYFYWYRQILGQKVEFLVSFYNNEISEKSEIFDDQFSVERPDGSNFTLKIRSTKLEDSAMYFCAMTGRTTYEQYFGPGTRLTVTE
B14: TCR 51 (codon optimized, cysteine modified version) (TCR, V domains shown)
V domain 1: QKEVEQNSGPLSVPEGAIASLNCTYSDRGSQSFFWYRQYSGKSPELIMSIYSNGDKEDGRFTAQLNKASQYVSLLIRDSQPSDSATYLCAVNMRGGGSNYKLTFGKGTLLTVNP
V domain 2: B13 V domain 2 with M94I, T95A, G96S, T98V, T99S
B15: TCR 48 (codon optimized, cysteine modified version) (TCR, V domains shown)
V domain 1: QKEVEQDPGPLSVPEGAIVSLNCTYSNSAFQYFMWYRQYSRKGPELLMYTYSSGNKEDGRFTAQVDKSSKYISLFIRDSQPSDSATYLCAMRIQGAQKLVFGQGTRLTINP
V domain 2: B13 V domain 2 with M94S, T98V, T99S

Molecular target: T1, HLA-A2/E6 (29-38) tetramer (human; HPV 16)
T1 construct: also called E6(29-38) peptide-MHC tetramer; E6(29-38)-loaded tetramer
Test: tetramer flow cytometry; transfected 1:1 CD4+ and CD4+/CD8+ Jurkat-derived cells;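 as to % cells in E6 tet+/CD8+ quadrant: cell mixtures transiently transfected with TCR-encoding plasmids, analysed by flow cytometry 48 h later after HLA-A*02:01 E6 tetramer staining combined with anti-CD8 antibody co-staining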;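 as to % cells in E6 tet+/CD8- quadrant: cell mixtures transiently transfected with TCR-encoding plasmids, analysed by flow cytometry 48 h later after HLA-A*02:01 E6 tetramer staining combined with anti-CD8 antibody co-staining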;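 as to % cells in E6 tet-/CD8+ quadrant: cell mixtures transiently transfected with TCR-encoding plasmids, analysed by flow cytometry 48 h later after HLA-A*02:01 E6 tetramer staining combined with anti-CD8 antibody co-staining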;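 as to % cells in E6 tet-/CD8- quadrant: cell mixtures transiently transfected with TCR-encoding plasmids, analysed by flow cytometry 48 h later after HLA-A*02:01 E6 tetramer staining combined with anti-CD8 antibody co-staining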;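 as to % cells in E7 tet+/CD8+ quadrant: cells transiently transfected with TCR plasmids, stained 48 h later with HLA-A*02:01 peptide-MHC tetramer plus anti-CD8 antibody, read by flow cytometry to assess CD8-independent tetramer binding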;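 as to % cells in E7 tet+/CD8- quadrant: cells transiently transfected with TCR plasmids, stained 48 h later with HLA-A*02:01 peptide-MHC tetramer plus anti-CD8 antibody, read by flow cytometry to assess CD8-independent tetramer binding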;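 as to % cells in E7 tet-/CD8+ quadrant: cells transiently transfected with TCR plasmids, stained 48 h later with HLA-A*02:01 peptide-MHC tetramer plus anti-CD8 antibody, read by flow cytometry to assess CD8-independent tetramer binding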;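 as to % cells in E7 tet-/CD8- quadrant: cells transiently transfected with TCR plasmids, stained 48 h later with HLA-A*02:01 peptide-MHC tetramer plus anti-CD8 antibody, read by flow cytometry to assess CD8-independent tetramer binding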
Description: (§1) For transfection, the CD4+ and CD4+/CD8+ cell mixtures were transiently transfected with TCR-encoding plasmids and 48 hours after transfection, cells were assessed by flow cytometry for (1) binding of the target peptide in the context of an MHC molecule (HLA:A02:01) by staining with an E6(29-38) peptide- or an E7(11-19) peptide-MHC tetramer reagent, and/or (2) CD8+ independent binding of the target by co-staining the tetramer-labeled cells with an anti-CD8 antibody.

Point of comparison: B5, “% cells in E6 tet+/CD8+ quadrant” value 34%. Against it:
- B1 — lower, 21.4%
- B2 — higher, 42.3%
- B3 — higher, 38.2%
- B4 — higher, 35.6%
- B6 — higher, 35.5%

Point of comparison: B6, “% cells in E6 tet+/CD8- quadrant” value 20.8%. Against it:
- B1 — higher, 40.2%
- B2 — higher, 47.4%
- B3 — higher, 34.1%
- B4 — higher, 28.2%
- B5 — lower, 14.7%

Point of comparison: B2, “% cells in E6 tet-/CD8+ quadrant” value 1.58%. Against it:
- B1 — higher, 13.6%
- B3 — higher, 5.17%
- B4 — higher, 9.51%
- B5 — higher, 10.2%
- B6 — higher, 7.71%

Point of comparison: B1, “% cells in E6 tet-/CD8- quadrant” value 24.8%. Against it:
- B2 — lower, 8.73%
- B3 — lower, 22.6%
- B4 — higher, 26.7%
- B5 — higher, 41.1%
- B6 — higher, 36%

Molecular target: T2, HLA-A2/E7 (11-19) tetramer (human; HPV 16)
T2 construct: also called E7(11-19) peptide-MHC tetramer; E7 (11-19)-loaded tetramer
Test: as above
Description: as §1

Point of comparison: B9, “% cells in E7 tet+/CD8+ quadrant” value 1.45%. Against it:
- B7 — higher, 3.28%
- B8 — higher, 22.4%
- B10 — lower, 1.27%
- B11 — higher, 3.35%
- B12 — higher, 2.96%
- B13 — higher, 1.98%
- B14 — higher, 5.7%
- B15 — higher, 5.36%

Point of comparison: B11, “% cells in E7 tet+/CD8- quadrant” value 0.43%. Against it:
- B7 — lower, 0.25%
- B8 — higher, 16.9%
- B9 — lower, 0.28%
- B10 — higher, 1.21%
- B12 — higher, 1.43%
- B13 — higher, 0.71%
- B14 — higher, 2.06%
- B15 — higher, 1.29%

Point of comparison: B14, “% cells in E7 tet-/CD8+ quadrant” value 27.5%. Against it:
- B7 — higher, 30.7%
- B8 — lower, 19.5%
- B9 — higher, 50.4%
- B10 — higher, 38.9%
- B11 — higher, 28.7%
- B12 — higher, 39.9%
- B13 — higher, 40.6%
- B15 — higher, 37%

Point of comparison: B12, “% cells in E7 tet-/CD8- quadrant” value 55.7%. Against it:
- B7 — higher, 65.8%
- B8 — lower, 41.3%
- B9 — lower, 47.9%
- B10 — higher, 58.6%
- B11 — higher, 67.5%
- B13 — higher, 56.7%
- B14 — higher, 64.7%
- B15 — higher, 56.4%
